T1: human 5T4-His protein (human, UniProt Q13641 32-355)
T1 construct: also called recombinant 5T4 protein (human 5T4-his tag); human 5T4 protein; not shown: His tag
T1 sequence (looked up): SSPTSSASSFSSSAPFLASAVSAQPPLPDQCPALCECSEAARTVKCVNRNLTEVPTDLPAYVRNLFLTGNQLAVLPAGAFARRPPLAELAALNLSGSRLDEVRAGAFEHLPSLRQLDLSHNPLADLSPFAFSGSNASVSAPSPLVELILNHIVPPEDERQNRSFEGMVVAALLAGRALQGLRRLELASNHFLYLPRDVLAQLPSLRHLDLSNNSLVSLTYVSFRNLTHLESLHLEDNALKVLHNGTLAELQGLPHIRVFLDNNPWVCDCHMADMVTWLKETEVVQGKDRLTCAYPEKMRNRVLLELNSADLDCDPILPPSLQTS


Molecular target: T1, human 5T4-His protein
Experiment: ELISA, coated 5T4-His
Protocol: To evaluate the binding activity of 14G12 humanized antibodies to human 5T4, the 14G12 chimeric antibody along with 14G12 humanized mAbs were subjected to ELISA test.
Briefly, microtiter plates were coated with human 5T4-His protein at 1 μg/ml in PBS, 100 μl/well at 4° C. overnight, then blocked with […]. Serial dilutions of antibodies were added to each well and incubated for 1 hour at 37° C. The plates were washed with PBS/Tween and then incubated with Goat Anti-Human IgG-HRP for 30 mins at 37° C. After washing, the plates were developed with TMB substrate and analyzed by spectrophotometer at OD 450 nm. As shown in FIG. 10 and Table 6, most of the humanized antibodies bound to human 5T4 at high activity.

EC50 [ng/mL]	Binder
520	Hu14G12-17 (antibody, V domains shown, humanized) VH: QVQLVQSGAEVKKPGSSVKVSCKASGGTFSSSWMNWVKQAPGQGLEWIGRIYREDGHTNYNGKFKGKATLTADKSTSTAYMELSSLRSEDTAVYFCANGGAMDYWGQGTTVTVSS VL: DIQMTQSPSSLSASVGDRVTITCRASQDISNYLNWYQQKPGKVPKLLIYYTSRLHSGVPSRFSGSGSGTDFTLTISSLQPEDVATYYCQQDNTLPWTFGGGTKLEIK
4.9	Hu14G12-24 (antibody, V domains shown, humanized) VH: QVQLVQSGAEVKKPGSSVKVSCKASGYAFSSSWMNWVRQAPGQGLEWMGRIYREDGHTNYNGKFKGRVTITADKSTTTAYMELSSLRSEDTAVYYCANGGAMDYWGQGTLVTVSS VL: DIQMTQSPSSLSASVGDRVTITCRASQDISNYLNWYQQKPGKAPKLLIYYTSRLHSGVPSRFSGSGSGTDYTLTISSLQPEDIATYFCQQDNTLPWTFGGGTKVEIK
8.7	Hu14G12-34 (antibody, V domains shown, humanized) VH: QVQLVQSGAEVKKPGASVKVSCKASGYAFSSSWMNWVRQAPGQGLEWMGRIYREDGHTNYNGKFKGRVTMTADKSTTTAYMELSSLRSEDTAVYYCANGGAMDYWGQGTLVTVSS VL: DIQMTQSPSSLSASVGDRVTITCRASQDISNYLNWYQQKPGKAPKLLIYYTSRLHSGVPSRFSGSGSGTDYTLTISSLQPEDIATYFCQQDNTLPWTFGGGTKVEIK
7.8	Hu14G12-27 (antibody, V domains shown, humanized) VH: QVQLVQSGAEVKKPGSSVKVSCKASGYAFSSSWMNWVRQAPGQGLEWMGRIYREDGHTNYNGKFKGRVTITADKSTTTAYMELSSLRSEDTAVYYCANGGAMDYWGQGTLVTVSS VL: DIQMTQSPSTLSASVGDRVTITCRASQDISNYLNWYQQKPGKAPKLLIYYTSRLHSGVPSRFSGSGSGTEYTLTISSLQPDDIATYFCQQDNTLPWTFGGGTKVEIK
7.8	Hu14G12-42 (antibody, V domains shown, humanized) VH: QVQLVQSGAEVKKPGASVKVSCKASGYAFSSSWMNWVRQAPGQRLEWMGRIYREDGHTNYNGKFKGRVTITADKSATTAYMELSSLRSEDTAVYYCANGGAMDYWGQGTLVTVSS VL: DIQMTQSPSTLSASVGDRVTITCRASQDISNYLNWYQQKPGKAPKLLIYYTSRLHSGVPSRFSGSGSGTEYTLTISSLQPDDIATYFCQQDNTLPWTFGGGTKVEIK

The remaining lines, values behind:

Binder	EC50 [ng/mL]
Hu14G12-33 (antibody, V domains shown, humanized) VH: QVQLVQSGAEVKKPGASVKVSCKASGYAFSSSWMNWVRQAPGQGLEWMGRIYREDGHTNYNGKFKGRVTMTADKSTTTAYMELSSLRSEDTAVYYCANGGAMDYWGQGTLVTVSS VL: DIQMTQSPSSLSASVGDRVTITCRASQDISNYLNWYQQKPGKAPKLLIYYTSRLHSGVPSRFSGSGSGTDYTFTISSLQPEDIATYFCQQDNTLPWTFGGGTKVEIK	11
Hu14G12-19 (antibody, V domains shown, humanized) VH: QVQLVQSGAEVKKPGSSVKVSCKASGGTFSSSWMNWVKQAPGQGLEWIGRIYREDGHTNYNGKFKGRATLTADKSTSTAYMELSSLRSEDTAVYFCANGGAMDYWGQGTTVTVSS VL: DIQMTQSPSSLSASVGDRVTITCRASQDISNYLNWYQQKPGKVPKLLIYYTSRLHSGVPSRFSGSGSGTDFTLTISSLQPEDVATYYCQQDNTLPWTFGGGTKLEIK	400
Hu14G12-38 (antibody, V domains shown, humanized) VH: QVQLVQSGAEVKKPGASVKVSCKASGYAFSSSWMNWVRQAPGQRLEWMGRIYREDGHTNYNGKFKGRVTITADKSATTAYMELSSLRSEDTAVYYCANGGAMDYWGQGTLVTVSS VL: DIQMTQSPSSLSASVGDRVTITCRASQDISNYLNWYQQKPGKAPKLLIYYTSRLHSGVPSRFSGSGSGTDYTFTISSLQPEDIATYFCQQDNTLPWTFGGGTKVEIK	6.4
Hu14G12-39 (antibody, V domains shown, humanized) VH: QVQLVQSGAEVKKPGASVKVSCKASGYAFSSSWMNWVRQAPGQRLEWMGRIYREDGHTNYNGKFKGRVTITADKSATTAYMELSSLRSEDTAVYYCANGGAMDYWGQGTLVTVSS VL: DIQMTQSPSSLSASVGDRVTITCRASQDISNYLNWYQQKPGKAPKLLIYYTSRLHSGVPSRFSGSGSGTDYTLTISSLQPEDIATYFCQQDNTLPWTFGGGTKVEIK	6.9
